Measurements taken from patent US20240209076A1 (KODIAK SCIENCES, published 2024).

B1: anti-IL-6 antibody, heavy chain G66D, light chain wild-type (antibody, human IgG1, V domains shown)
VH: EVQLVESGGGLVQPGGSLRLSCAASGFTFSPFAMSWVRQAPGKGLEWVAKISPGGSWTYYSDTVTDRFTFSLDTSKSTAYLQMNSLRAEDTAVYYCARQLWGYYALDIWGQGTLVTVSS
VL: DIQLTQSPSSLSASVGDRVTITCSASISVSYMYWYQQKPGKAPKLLIYDMSNLASGVPSRFSGSGSGTDFTLTISSLQPEDFATYYCMQWSGYPYTFGQGTKVEIK
notes: see m23; engineered human IgG1
B2: VEGFR-AntiIL6-OG1802 (other)
heavy: SDTGRPFVEMYSEIPEIIHMTEGRELVIPCRVTSPNITVTLKKFPLDTLIPDGKRIIWDSRKGFIISNATYKEIGLLTCEATVNGHLYKTNYLTHRQTNTIIDVVLSPSHGIELSVGEKLVLNCTARTELNVGIDFNWEYPSSKHQHKKLVNRDLKTQSGSEMKKFLSTLTIDGVTRSDQGLYTCAASSGLMTKKNSTFVRVHEKGGGGSGGGGSEVQLVESGGGLVQPGGSLRLSCAASGFTFSPFAMHWVRQAPGKGLEWVAKISPGGSWTYYSDTVTDRFTFSLDTSKSTAYLQMNSLRAEDTAVYYCARQAWGYYALDIWGQGTLVTVSSASTKGPSVFPLAPSSKSTSGGTAALGCLVKDYFPEPVTVSWNSGALTSGVHTFPAVLQSSGLYSLSSVVTVPSSSLGTQTYICNVNHKPSNTKVDKKVEPKSCDKTHTCPPCPAPEAAGAPSVFLFPPKPKDTLMISRTPEVTCVVVDVSHEDPEVKFNWYVDGVEVHNAKTKPREEQYNSTYRVVSVLTVLHQDWLNGKEYKCKVSNKALPAPIEKTISKAKGQPREPQVYTLPPSREEMTKNQVSLTCLVKGFYPSDIAVEWESNGQPENNYKTTPPVLDSDGSFFLYSKLTVDKSRWQQGNVFSCSVMHEALHNHYTQKSLSCSPGK
light: DIQLTQSPSSLSASVGDRVTITCSASISVSYLYWYQQKPGKAPKLLIYDDSSLASGVPSRFSGSGSGTDFTLTISSLQPEDFATYYCQQWSGYPYTFGQGTKVEIKRTVAAPSVFIFPPSDEQLKSGTASVVCLLNNFYPREAKVQWKVDNALQSGNSQESVTEQDSKDSTYSLSSTLTLSKADYEKHKVYACEVTHQGLSSPVTKSFNRGEC
modifications: OG1802 phosphorylcholine polymer (about 794 kDa) on Cys L443C (EU numbering; 660C in SEQ ID NO: 170) by maleimide-cysteine chemistry, one polymer per molecule
notes: also called bioconjugate
B3: VEGFR-AntiIL6 (other)
heavy: B2 heavy
light: B2 light
notes: VEGF trap (VEGFR1 domain 2 - VEGFR2 domain 3) fused by a GS linker to the N-terminus of the anti-IL-6 IgG1 heavy chain; also called VEGF Trap-anti-IL6 antibody fusion
B4: VEGFR-AntiIL6-OG1802 (other)
heavy: B2 heavy
light: B2 light
modifications: OG1802 phosphorylcholine biopolymer (about 794 kDa) on Cys L443C (EU numbering; 660C in SEQ ID NO: 170) by maleimide; one polymer per molecule
notes: Polymer conjugate of m3; also called VEGFR-AntiIL6 bioconjugate
B5: VEGFR-AntiIL6 (FIG. 27) (other)
heavy: B2 heavy
light: B2 light

Assays:
recombinant human IL-6 [1] = target: T1, recombinant human IL-6 (human, UniProt P05231 30-212); experiment: SPR, antibody captured on Protein A, IL-6 as analyte
Description: Antibodies were captured on a Protein A chip (GE) by injecting 1:20 dilution of cell supernatant at 10 μL/min for 60 seconds. […] The sensor chip was regenerated by a 60 seconds injection of 10 mM Glycine pH 1.7 at flow rate of 50 μL/min. […] For this setup, 1 μg/mL of purified antibody was injected over a Protein A chip at 10 μL/min for 25-28 seconds. Data analysis for supernatant and purified samples were performed using BIAevaluation software (GE). All sensorgrams were double reference subtracted and fit using a 1:1 Langmuir binding model.

VEGF [2] = target: VEGF (UniProt P15692-4 27-191, limits assumed); experiment: cell-based or functional assay
Target sequence in this assay (P15692 other isoform, or with tags, fused parts or gaps limits assumed): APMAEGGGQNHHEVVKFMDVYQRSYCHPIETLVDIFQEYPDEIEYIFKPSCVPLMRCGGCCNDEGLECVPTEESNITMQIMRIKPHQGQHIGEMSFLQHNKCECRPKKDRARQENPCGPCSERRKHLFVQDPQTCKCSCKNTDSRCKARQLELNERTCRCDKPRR

recombinant human IL-6 [3] = target: T1, recombinant human IL-6; experiment: IL-6/IL-6R competitive ELISA as in example 3
Description: The plate was blocked in 2% bovine serum albumin (BSA) in PBS-Tween (PBST) for 2 hours. […] This mixture was then added to the ELISA plate following a wash step.

[4] = target: T2, biotinylated VEGF (R&D Systems) (UniProt P15692-4 27-191, limits assumed, biotinylated); experiment: VEGF/VEGFR competitive ELISA as in example 3
T2 construct: also called btVEGF; bt-VEGF
Description: The plate was blocked in 2% bovine serum albumin (BSA) in PBS-Tween (PBST) for 2 hours.
This assay was performed as described in example 3.

VEGF [5] = target: T3, VEGF (UniProt P15692-4 27-191, limits assumed); experiment: KinExA 3200, in solution, 37 C
T3 construct: also called VEGF-A
T3 sequence (P15692 other isoform, or with tags, fused parts or gaps limits assumed): as above

human IL-6 [6] = target: T4, human IL-6 (human, UniProt P05231 30-212); experiment: KinExA 3200, in solution, 37 C
VEGF [7] = target: T3, VEGF; experiment: KinExA 3200, kinetic measurement, 37 C
human IL-6 [8] = target: T4, human IL-6; experiment: KinExA 3200, kinetic measurement, 37 C
VEGF [9] = target: T3, VEGF; experiment: KinExA 3200, calculated as Kd x kon, 37 C
human IL-6 [10] = target: T4, human IL-6; experiment: KinExA 3200, calculated as Kd x kon, 37 C

T1 sequence (P05231 30-212 limits assumed): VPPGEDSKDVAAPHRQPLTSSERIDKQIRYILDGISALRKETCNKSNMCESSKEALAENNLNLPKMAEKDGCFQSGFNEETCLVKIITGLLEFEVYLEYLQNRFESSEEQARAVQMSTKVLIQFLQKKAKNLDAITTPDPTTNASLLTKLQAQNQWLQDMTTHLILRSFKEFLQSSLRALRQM
T4 sequence (P05231 30-212 limits assumed): as above
T2 sequence (P15692 other isoform, or with tags, fused parts or gaps limits assumed): as the sequence (P15692 other isoform, or with tags, fused parts or gaps limits assumed) above

Row | Binder | fold decrease in KD relative to wild-type (recombinant human IL-6 [1]) | cell based VEGF stimulated VEGFR reporter assay, average IC50 (VEGF [2]) | IC50 (recombinant human IL-6 [3]) | IC50 [4] | Kd (VEGF [5]) | Kd (human IL-6 [6]) | kon (VEGF [7]) | kon (human IL-6 [8]) | koff (VEGF [9]) | koff (human IL-6 [10])
1 | B1 | ~2 fold |  |  |  |  |  |  |  |  | 
2 | B2 |  | 0.35 nM | 0.23 nM | 0.99 nM |  |  |  |  |  | 
3 | B3 |  |  |  |  | 2.1 pM | 0.0211 nM | 4.04e+07 M⁻¹ s⁻¹ | 1.15e+07 M⁻¹ s⁻¹ | 8.49e-05 s⁻¹ | 0.000242 s⁻¹
4 | B4 |  |  |  |  | 1.02 pM | 0.0121 nM | 3.75e+06 M⁻¹ s⁻¹ | 8e+06 M⁻¹ s⁻¹ | 3.83e-06 s⁻¹ | 9.66e-05 s⁻¹
5 | B5 |  | 0.51 nM | 0.26 nM | 1.98 nM |  |  |  |  |  | 
